Publication PMC3616739
Several values for one entry are separate records, joined by “and”; a condition that tells them apart may be missing. Equal values may be shown once.

Target: GST-LEDGF PWWP (1–100) (UniProt O75475)
Experiment: pull-down

Sequence of GST-LEDGF PWWP (1–100) (O75475 1-100): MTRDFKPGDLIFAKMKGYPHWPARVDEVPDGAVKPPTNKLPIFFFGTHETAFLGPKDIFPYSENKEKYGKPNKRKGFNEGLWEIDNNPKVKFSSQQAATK

native mononucleosomes (MNs) from SupT1 cells (from UniProt P0C0S8;P62807;P68431;P62805) (complex)
Kd: 232 nM and 102 nM
